Measured values published in paper PMC4482762.

Biological target: endogenous 14-3-3ε (UniProt P62258)
Test: GFP-Trap of YFP-R6, Western blot
Conditions: reference: YFP-R6 wild type; sites S74

binding against the reference: lost
Substance: PPP1R3D (R6) (from UniProt O95685) YFP-R6 S74A
